Experiments:
[1] = molecular target: DS-Cav1, prefusion-stabilized form of the RSV fusion (F) glycoprotein (human respiratory syncytial virus | not stated); assay: crystal structure
[2] = molecular target: DS-Cav1, prefusion-stabilized form of the RSV fusion (F) glycoprotein (human respiratory syncytial virus | not stated); assay: cryo-EM structure

Question: “DS-Cav1, prefusion-stabilized form of the RSV fusion (F) glycoprotein (natural protein)” was tested. Which stoichiometry N [1] did it give?
Answer: 3

Question: What about the stoichiometry N [2] of the same substance?
Answer: 3

— paper PMC8386734
